{"source": "patent US20230002494A1", "about": "(SANYOU BIOPHARMACEUTICALS, published 2023)", "binders": {"B1": {"name": "NB22D-21-94 (Fc fusion)", "chain": "EVQLVESGGGLVQPGGSLRLSCAASRTAGNIHGMHWYRQAPGKGREWVGSIFITGNTIVTDSVKGRFTISRDNAKNTLYLQMNTLRAEDTAVYYCAADVRGYGRAWGQGTTVTVSS", "notes": "not shown: 'full-length antibodies' were constructed"}, "B2": {"name": "NB22D-21-123 (Fc fusion)", "chain": "EVQLVESGGGLVQPGGSLRLSCAASPTASNIHGMHWYRQAPGKGREWVGMIFITGLTIVTDSVKGRFTISRDNAKNTLYLQMNTLRAEDTAVYYCAADVSGYGRAWGQGTTVTVSS", "notes": "as for B1"}, "B3": {"name": "SY01-D21-8 (VHH lysate) (VHH)", "VHH": "EVQLVESGGGLVQPGGSLRLSCAASRTYSNIYGMHWYRQAPGKGREWVGTIFIGSNTIVTDSVKGRFTISRDNAKNTLYLQMNTLRAEDTAVYYCAADVSGYGRAWGQGTTVTVSS"}, "B4": {"name": "SY01-201 (VHH lysate) (VHH)", "VHH": "EVQLVESGGGLVQPGGSLRLSCAHSRTDSNIHGMHWYRQAPGKGREWVGTIFIDLNTIVTDSVKGRFTISRDNAKNTLYLQMNTLRAEDTAVYYCAADVSGYGRAWGQGTTVTVSS", "notes": "Tested as VHH lysate of a monoclone from the phage display vector"}, "B5": {"name": "NB22D-21-109 (Fc fusion)", "chain": "EVQLVESGGGLVQPGGSLRLSCAASRTAGYIHGMHWYRQAPGKGREWVGMIFGWGNTIVTDSVKGRFTISRDNAKNTLYLQMNTLRAEDTAVYYCAADVRGYGRAWGQGTTVTVSS", "notes": "as for B1"}, "B6": {"name": "NB22D-21-huVH1 (Fc fusion, not shown: a dimerising Fc or GST)", "chain": "EVQLVESGGGLVQPGGSLRLSCAHSRTDSNINGMHWYRQAPGKGREWVGTIFIDGNTIVTDSVKGRFTISRDNAKNTLYLQMNTLRAEDTAVYYCAADVSGYGRAWGQGTTVTVSS", "notes": "Humanized form of NB22D-21; also called humanized antibody NB22D-21-huVH1"}, "B7": {"name": "47 (VHH)", "VHH": "EVQLVESGGGLVQPGGSLRLSCAASRTLSNIRGMHWYRQAPGKGREWVGTIFIDLNTIVTDSVKGRFTISRDNAKNTLYLQMNTLRAEDTAVYYCAADVSGYGRAWGQGTTVTVSS", "notes": "also called SY01-D21-47"}, "B8": {"name": "NB22D-21-17 VHH-Fc chimeric antibody protein (Fc fusion)", "chain": "EVQLVESGGGLVQPGGSLRLSCAASRTGSNIYGMHWYRQAPGKGREWVGTIFIDWNTIVTDSVKGRFTISRDNAKNTLYLQMNTLRAEDTAVYYCAADVSGYGRAWGQGTTVTVSS", "notes": "not shown: human IgG1 Fc fragment, its N-terminus linked to the C-terminus of the VHH"}, "B9": {"name": "NB22D-21-45-106 (Fc fusion)", "chain": "EVQLVESGGGLVQPGGSLRLSCAASRRWSNIHGMHWYRQAPGKGREWVGSRFITGNTIVTDSVKGRFTISRDNAKNTLYLQMNTLRAEDTAVYYCAADVRGYGRAWGQGTTVTVSS", "notes": "as for B1"}, "B10": {"name": "NB22D-21-154 (Fc fusion)", "chain": "EVQLVESGGGLVQPGGSLRLSCAASRTASNAMGMHWYRQAPGKGREWVGMIFRDGNTIVTDSVKGRFTISRDNAKNTLYLQMNTLRAEDTAVYYCAADVRGYGRAWGQGTTVTVSS", "notes": "as for B1"}, "B11": {"name": "SY01-D21-24 (VHH lysate) (VHH)", "VHH": "EVQLVESGGGLVQPGGSLRLSCAASRTFSNIFGMHWYRQAPGKGREWVGTIFITGNTIVTDSVKGRFTISRDNAKNTLYLQMNTLRAEDTAVYYCAADVSGYGRAWGQGTTVTVSS"}, "B12": {"name": "NB22D-21-8 VHH-Fc chimeric antibody protein (Fc fusion)", "chain": "EVQLVESGGGLVQPGGSLRLSCAASRTYSNIYGMHWYRQAPGKGREWVGTIFIGSNTIVTDSVKGRFTISRDNAKNTLYLQMNTLRAEDTAVYYCAADVSGYGRAWGQGTTVTVSS", "notes": "as for B8"}}, "key": {"[1]": {"target": "T1, human PD-L1 (full-length, on cells) (human, UniProt Q9NZQ7 19-290)", "T1 construct": "whole, on cells; Expressed on CHO-s cells; also called human PD-L1-CHO; PD-L1-CHO", "T1 sequence (Q9NZQ7 19-290)": "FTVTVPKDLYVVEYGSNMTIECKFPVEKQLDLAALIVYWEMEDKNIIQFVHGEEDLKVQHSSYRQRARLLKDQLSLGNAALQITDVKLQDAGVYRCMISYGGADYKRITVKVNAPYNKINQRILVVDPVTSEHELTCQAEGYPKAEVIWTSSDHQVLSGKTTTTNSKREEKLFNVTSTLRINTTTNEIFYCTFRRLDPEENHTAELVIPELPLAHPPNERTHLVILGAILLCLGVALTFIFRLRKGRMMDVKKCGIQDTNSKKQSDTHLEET", "assay": "FACS on huPD-L1-CHOK cells"}, "[2]": {"target": "T1, human PD-L1 (full-length, on cells)", "assay": "FACS blocking on huPDL1-CHO cells; blocked ligand PD-1-Biotin 1 µg/mL; MFI = bound PD-1"}, "[3]": {"target": "T2, mouse PD-L1 (full-length, on CHO-s cells) (mouse, UniProt Q9EP73 19-290)", "T2 construct": "whole, on cells; also called mouse PD-L1-CHO", "T2 sequence (Q9EP73 19-290)": "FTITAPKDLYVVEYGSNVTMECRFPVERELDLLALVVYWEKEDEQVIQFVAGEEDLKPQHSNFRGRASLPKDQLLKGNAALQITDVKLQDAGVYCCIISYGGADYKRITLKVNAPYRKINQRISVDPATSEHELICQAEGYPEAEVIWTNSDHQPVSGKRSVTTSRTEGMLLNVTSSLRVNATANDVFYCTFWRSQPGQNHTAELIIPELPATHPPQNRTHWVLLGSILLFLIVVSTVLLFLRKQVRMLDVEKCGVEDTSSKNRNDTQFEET", "assay": "FACS on mouse PD-L1-CHOK cells"}, "[4]": {"target": "T1, human PD-L1 (full-length, on cells)", "assay": "FACS blocking on PD-L1-CHO cells, lysate samples; the blocked ligand is not named on the sheet or in Example 17"}, "[5]": {"target": "T1, human PD-L1 (full-length, on cells)", "assay": "FACS on PD-L1-CHO cells, anti-Llama IgG FITC"}, "[6]": {"target": "T1, human PD-L1 (full-length, on cells)", "assay": "FACS on human PD-L1-CHO cells, PE anti-human IgG Fc", "description": "1) collecting the cultured human PD-L1-CHO cells, centrifuging the collected cells at 300 g to remove the supernatant, resuspending the cells in a formulated FACS buffer and counting the cells, and adjusting the density of the cell suspension to 2×10⁶ cells/mL;"}, "[7]": {"target": "T1, human PD-L1 (full-length, on cells)", "assay": "FACS, human PD-L1-CHO cells", "description": "(§1) In order to evaluate 4 derisked VHH-Fc candidate antibodies, an FACS method is used to detect the binding activities thereof to cell expressed human PD-L1 and monkey PD-L1 proteins."}, "[8]": {"target": "T3, rhesus monkey PD-L1 (full-length, on CHO-s cells) (rhesus monkey, UniProt F6VEW6 19-290)", "T3 construct": "whole, on cells; also called monkey PD-L1-CHO", "assay": "FACS, monkey PD-L1-CHO cells", "description": "as §1"}}, "data": [{"binder": "B1", "values": [{"measurement": "EC50 (read off the curve)", "setting": "[1]", "result": "~0.2", "unit": "µg/mL"}, {"measurement": "IC50 (read off the curve)", "setting": "[2]", "result": "~0.2", "unit": "µg/mL"}]}, {"binder": "B2", "values": [{"measurement": "EC50 (read off the curve)", "setting": "[1]", "result": "~0.2", "unit": "µg/mL"}, {"measurement": "binding result", "setting": "[3]", "result": "binds"}, {"measurement": "IC50 (read off the curve)", "setting": "[2]", "result": "~0.2", "unit": "µg/mL"}]}, {"binder": "B3", "values": [{"measurement": "IC50 (read off the curve)", "setting": "[4]", "result": "~0.3", "unit": "µg/mL"}]}, {"binder": "B4", "values": [{"measurement": "binding result", "setting": "[5]", "result": "binds"}]}, {"binder": "B5", "values": [{"measurement": "EC50 (read off the curve)", "setting": "[1]", "result": "~0.2", "unit": "µg/mL"}, {"measurement": "EC50 (read off the curve)", "setting": "[3]", "result": "~1", "unit": "µg/mL"}, {"measurement": "IC50 (read off the curve)", "setting": "[2]", "result": "~0.2", "unit": "µg/mL"}]}, {"binder": "B6", "values": [{"measurement": "EC50 (read off the curve)", "setting": "[6]", "result": "~0.1", "unit": "µg/mL"}]}, {"binder": "B7", "values": [{"measurement": "IC50 (read off the curve)", "setting": "[4]", "result": "~0.3", "unit": "µg/mL"}]}, {"binder": "B8", "values": [{"measurement": "EC50", "setting": "[7]", "result": 1.73, "unit": "µg/mL"}, {"measurement": "EC50", "setting": "[8]", "result": 3.25, "unit": "µg/mL"}]}, {"binder": "B9", "values": [{"measurement": "EC50 (read off the curve)", "setting": "[1]", "result": "~0.2", "unit": "µg/mL"}, {"measurement": "binding result", "setting": "[3]", "result": "binds"}, {"measurement": "IC50 (read off the curve)", "setting": "[2]", "result": "~0.2", "unit": "µg/mL"}]}, {"binder": "B10", "values": [{"measurement": "EC50 (read off the curve)", "setting": "[1]", "result": "~0.2", "unit": "µg/mL"}, {"measurement": "binding result", "setting": "[3]", "result": "binds"}, {"measurement": "IC50 (read off the curve)", "setting": "[2]", "result": "~0.2", "unit": "µg/mL"}]}, {"binder": "B11", "values": [{"measurement": "IC50 (read off the curve)", "setting": "[4]", "result": "~0.5", "unit": "µg/mL"}]}, {"binder": "B12", "values": [{"measurement": "EC50", "setting": "[7]", "result": 0.26, "unit": "µg/mL"}, {"measurement": "EC50", "setting": "[8]", "result": 0.7, "unit": "µg/mL"}]}]}
